From US20250197476A1

Assays:
[1] = molecular target: Fc gamma receptors of NK cells; experiment: cytofluorometry, NK cells, 10 µg/ml, 30 min at 37 °C
[2] = molecular target: Fc gamma receptors of human macrophages; experiment: cytofluorometry, human macrophages with 5 µg/ml hybrid for 20 h at 37 °C, anti-Fc-FITC
[3] = molecular target: Fc gamma receptors of human macrophages; experiment: cytofluorometry, human macrophages with 5 µg/ml hybrid for 2 h at 37 °C, anti-Fc-FITC
[4] = molecular target: Fc gamma receptors of NK cells; experiment: cytofluorometry, NK cells, 24 h at 37 °C
[5] = molecular target: Fc gamma receptors of NK cells; experiment: cytofluorometry, NK cells, 48 h at 37 °C
[6] = molecular target: Fc gamma receptors of NK cells; experiment: cytofluorometry, NK cells, 30 min at 37 °C
[7] = molecular target: Fc gamma receptors of NK cells; experiment: cytofluorometry, NK cells, 10 µg/ml, no competing IgG (same values as Table 9)
[8] = molecular target: Fc gamma receptors of NK cells; experiment: competition, cytofluorometry on NK cells; human IgG at 100 µg/ml against FcSDHFSTIE-N3-DBCO-A647 at 10 µg/ml
[9] = molecular target: Fc gamma receptors of NK cells; experiment: competition, cytofluorometry on NK cells; human IgG at 1000 µg/ml against FcSDHFSTIE-N3-DBCO-A647 at 10 µg/ml
[10] = molecular target: Fc gamma receptors of NK cells; experiment: competition, cytofluorometry on NK cells; human IgG at 10000 µg/ml against FcSDHFSTIE-N3-DBCO-A647 at 10 µg/ml
[11] = molecular target: Fc gamma receptors of NK cells; experiment: competition, cytofluorometry on NK cells; human IgG at 10 µg/ml against FcSDHFSTIE-N3-DBCO-A647 at 10 µg/ml
[12] = molecular target: Fc gamma receptors of NK cells; experiment: competition, cytofluorometry on NK cells; human IgG at 1 µg/ml against FcSDHFSTIE-N3-DBCO-A647 at 10 µg/ml

FcLALAPG-N3-DBCO-A647 (from UniProt P01857 104-330)
MFI [1]: 450

FcLALAPG-N3-DBCO-β60-74Cit (from UniProt P01857 104-330)
fluorescence (Macrophages) [2]: 404
fluorescence (Macrophages) [3]: 502

FcSDHFSTIE-N3-DBCO-A488 (from UniProt P01857 104-330)
MFI [4]: 2350
MFI [5]: 1710
MFI [6]: 2970

FcSDHFSTIE-N3-DBCO-A647 (from UniProt P01857 104-330)
MFI [1]: 38500
MFI [7]: 38500

FcSDHFSTIE-N3-DBCO-PEG3-β60-74cit-lysineA488 (from UniProt P01857 104-330)
MFI [4]: 4090
MFI [5]: 4340
MFI [6]: 4590

FcSDHFSTIE-N3-DBCO-β60-74Cit (from UniProt P01857 104-330)
fluorescence (Macrophages) [2]: 1460
fluorescence (Macrophages) [3]: 1330

FcWT-N3-DBCO-β60-74Cit (from UniProt P01857 104-330)
fluorescence (Macrophages) [2]: 1000
fluorescence (Macrophages) [3]: 808

human IgG (antibody)
MFI of FcSDHFSTIE-N3-DBCO-A647 with competing IgG [8]: 36300
RATIO of FcSDHFSTIE-N3-DBCO-A647 with competing IgG [8]: 171
MFI of FcSDHFSTIE-N3-DBCO-A647 with competing IgG [9]: 29500
RATIO of FcSDHFSTIE-N3-DBCO-A647 with competing IgG [9]: 139
MFI of FcSDHFSTIE-N3-DBCO-A647 with competing IgG [10]: 20500
RATIO of FcSDHFSTIE-N3-DBCO-A647 with competing IgG [10]: 96.6
MFI of FcSDHFSTIE-N3-DBCO-A647 with competing IgG [11]: 38800
RATIO of FcSDHFSTIE-N3-DBCO-A647 with competing IgG [11]: 183
MFI of FcSDHFSTIE-N3-DBCO-A647 with competing IgG [12]: 37900
RATIO of FcSDHFSTIE-N3-DBCO-A647 with competing IgG [12]: 179
